{
  "source": "paper PMC3597628",
  "origin": "cited, not measured here",
  "key": {"[1]": {"target": "(Pro)renin receptor (Homo sapiens) (UniProt O75787)", "sequence (O75787 17-302)": "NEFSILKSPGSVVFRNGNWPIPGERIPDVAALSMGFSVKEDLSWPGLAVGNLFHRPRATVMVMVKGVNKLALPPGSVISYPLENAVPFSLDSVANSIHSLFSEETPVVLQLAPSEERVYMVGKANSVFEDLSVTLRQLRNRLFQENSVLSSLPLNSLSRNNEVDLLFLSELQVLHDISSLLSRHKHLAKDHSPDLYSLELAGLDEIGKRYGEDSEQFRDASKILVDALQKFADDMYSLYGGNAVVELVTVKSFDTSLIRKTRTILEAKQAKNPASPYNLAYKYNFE"}, "[2]": {"target": "(Pro)renin receptor (Homo sapiens) (UniProt O75787)", "remark": "listed apart in the source"}},
  "note": "Where two headings read alike, the source gives them in different places.",
  "data": [
    {"substance": "Prorenin (from UniProt P00797)", "values": [
      {"measurement": "Kd", "setting": "[1]", "result": 1.2, "unit": "nM"}
    ]},
    {"substance": "Prorenin (from UniProt P08424)", "values": [
      {"measurement": "Kd", "setting": "[2]", "result": 8.3, "unit": "nM"}
    ]}
  ]
}
